According to patent US20030148383A1, “Methods for identifying proteins with N-terminal N-myristoylation” (Boehringer Ingelheim International GmbH, priority 2001, published 2003):
Read-outs that look alike come from different tables or passages of the source.

Key:
[1] = target: T1, Myristoyl-CoA:protein N-myristoyltransferase from Saccharomyces cerevisiae (Saccharomyces cerevisiae, UniProt P14743); experiment: kinetic measurements of substrate specificity of yeast NMT with octapeptides; format: biochemical; details: ratio of the Km, Rocque et al. 1993 data
T1 sequence (P14743 1-455): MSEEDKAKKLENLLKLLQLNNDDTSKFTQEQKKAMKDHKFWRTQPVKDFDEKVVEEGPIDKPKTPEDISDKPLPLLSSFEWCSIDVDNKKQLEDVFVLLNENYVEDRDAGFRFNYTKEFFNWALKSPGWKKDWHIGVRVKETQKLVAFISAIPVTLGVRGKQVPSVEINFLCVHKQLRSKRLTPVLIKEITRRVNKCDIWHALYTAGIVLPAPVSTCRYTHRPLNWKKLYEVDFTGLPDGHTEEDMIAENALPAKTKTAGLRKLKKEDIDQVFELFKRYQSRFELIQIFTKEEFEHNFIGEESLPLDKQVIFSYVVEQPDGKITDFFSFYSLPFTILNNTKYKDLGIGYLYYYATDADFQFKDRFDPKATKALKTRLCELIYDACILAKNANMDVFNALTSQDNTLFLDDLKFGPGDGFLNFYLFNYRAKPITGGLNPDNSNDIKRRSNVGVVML
Source text: The enzyme Myristoyl-CoA:protein N-myristoyltransferase from Saccharomyces cerevisiae has been subject to extensive kinetic measurements to examine its substrate specificity (Towler, D. A., et al., Annu. Rev. Biochem. 57:69-99 (1988)). […] However, the relation of the affinities, certifying which substrates are binding better than others, should remain constant.

[2] = target: T1, Myristoyl-CoA:protein N-myristoyltransferase from Saccharomyces cerevisiae; details: cited from earlier work; for Km: octapeptide substrate
[3] = earlier publication, Towler et al. 1988

Row | Sequence | higher affinity (lower Km) than GSSKSKPK [1] | Km ([2]; Rocque et al. 1993) | Km [2, 3] | ability to become myristoylated ([2]; mutation of octapeptide GNAAAARR to GPAAAARR, Towler et al. 1988)
1 | GNAAAARR [octapeptide substrate of yeast NMT, derived from cAMP-dependent protein kinase] | 3 fold | 31 µM | 60 µM | –
2 | GPAAAARR [octapeptide, mutation of […] with proline on position 2] | – | – | – | loss of the ability to become myristoylated
3 | GSSKSKPK [octapeptide substrate of yeast NMT] | – | 105 µM | 40 µM | –
